Tests used:
human CLDN18.2 [1] = biological target: human CLDN18.2 (human); test: cell-based or functional assay
human CLDN18.2 [2] = biological target: T1, human CLDN18.2 (human); test: FACS, NUGC-4 cells (natural CLDN18.2)
T1 construct: also called claudin18.2
Experimental: (§1) Based on the FACS method, the binding activity of anti-CLDN18.2 humanized antibodies for the cell lines KATOIII (Cell Bank of the Chinese Academy of Sciences) and NUGC-4 (Cell Bank of the Chinese Academy of Sciences) naturally expressing CLDN18.2 was analyzed. […] See Example 3 for the specific method.

human CLDN18.2 [3] = biological target: T1, human CLDN18.2; test: FACS, KATOIII cells (natural CLDN18.2)
Experimental: as §1

human CLDN18.2 [4] = biological target: T1, human CLDN18.2; test: cell-based or functional assay; remark: listed apart in the source
human CLDN18.2 [5] = biological target: T1, human CLDN18.2; test: cell-based or functional assay; remark: listed apart in the source
human CLDN18.2 [6] = biological target: T1, human CLDN18.2; test: FACS, NUGC-4 cells (natural CLDN18.2); remark: listed apart in the source
Experimental: as §1

human CLDN18.2 [7] = biological target: T1, human CLDN18.2; test: FACS, KATOIII cells (natural CLDN18.2); remark: listed apart in the source
Experimental: as §1

human CLDN18.2 [8] = biological target: T1, human CLDN18.2; test: cell-based or functional assay; remark: listed apart in the source

| ADCC EC50, Jurkat-CD16a v158-NFAT-luciferase effector cells, KATOIII target cells (human CLDN18.2 [1]) [nM] | ADCC EC50, Jurkat-CD16a v158-NFAT-luciferase effector cells, U2OS-CLDN18.2 target cells (human CLDN18.2 [1]) [nM] | EC50 (human CLDN18.2 [2]) [nM] | EC50 (human CLDN18.2 [3]) [nM] | ADCC EC50, Jurkat-CD16a v158-NFAT-luciferase effector cells, NIH-3T3-CLDN18.2 target cells (human CLDN18.2 [4]) [nM] | ADCC EC50, Jurkat-CD16a v158-NFAT-luciferase effector cells, NUGC-4 target cells (human CLDN18.2 [4]) [nM] | CDC EC50, NIH-3T3-CLDN18.2 target cells (human CLDN18.2 [5]) [nM] | EC50 (human CLDN18.2 [6]) [nM] | EC50 (human CLDN18.2 [7]) [nM] | Binder | further results |
| --- | --- | --- | --- | --- | --- | --- | --- | --- | --- | --- |
| 0.396 | 0.015 | 14.1 | 5.84 | – | – | – | – | – | humanized antibody hz28G3-1.2 (antibody, human IgG1, kappa, V domains shown) VH: QVQLVQSGAEVKKPGASVKVSCKASGYTFTDYLMLWVRQAPGQGLEWMGNINPYYGRTYYALKFQGRVTMTVDRSTSTVYMELSSLRSEDTAVYYCARDGYSLRNAMDYWGQGTLVTVSS VL: DIVMTQSPDSLAVSLGERATINCKSSQSLFNSGNQKNYLAWYQQKPGQPPKLLIYGASTRESGVPDRFSGSGSGTDFTLTISSLQAEDVAVYYCQNAHSYPYTFGQGTKVEIKR | – |
| – | – | – | – | 0.017 | 0.023 | 0.84 | 17.7 | 7.9 | humanized antibody hz40F6-1.3 (antibody, human IgG1, kappa, V domains shown) VH: QVQLVESGGGVVQPGRSLRLSCAASGFTLTSYGVYWVRQAPGKGLEWVAVVWAGGNTNYADALKGRFTISKDNSKSTLYLQMNSLRAEDTAVYYCARDRGRLLAMDYWGQGTLVTVSS VL: DIVMTQSPDSLAVSLGERATINCKSSQSLLNSGNQKNYLAWYQQKPGQPPKLLIYGASTRESGVPDRFTGSGSGTDFTLTISSLQAEDVAVYYCQNDHFFPFTFGQGTKVEIKR | – |
| – | – | – | – | 0.012 | 0.149 | 3.8 | 18.7 | 8.77 | humanized antibody hz40F6-2.1 (antibody, human IgG1, kappa, V domains shown) VH: QVQLVESGGGVVQPGRSLRLSCAASGFTLTSYGVYWVRQAPGKGLEWVAVVWAGGNTNYADSVKGRFTISKDNSKSTLYLQMNSLRAEDTAVYYCARDRGRLLAMDYWGQGTLVTVSS VL: DIVMTQSPDSLAVSLGERATINCKSSQSLLNSGNQKNYLAWYQQKPGQPPKLLIYGASTRESGVPDRFSGSGSGTDFTLTISSLQAEDVAVYYCQNDYFFPFTFGQGTKVEIKR | – |
| 0.861 | 0.017 | 12.4 | 5.92 | – | – | – | – | – | humanized antibody hz28G3-2.2 (antibody, human IgG1, kappa, V domains shown) VH: QVQLVQSGAEVKKPGASVKVSCKASGYTFTDYLMLWVRQAPGQGLEWMGNINPYYGRTYYALKFQGRVTMTVDRSTSTVYMELSSLRSEDTAVYYCARDGYSLRNAMDYWGQGTLVTVSS VL: DIVMTQSPYSLAVSLGERATINCKSSQSLFNSGNQKNYLAWYQQKPGQPPKLLIYGASTRESGVPDRFTGSGSGTDFTLTISSLQAEDVAVYYCQNAHSYPYTFGQGTKVEIKR | – |
| 0.184 | 0.017 | 14 | 5.83 | – | – | – | – | – | humanized antibody hz28G3-1.4 (antibody, human IgG1, kappa, V domains shown) VH: QVQLVQSGAEVKKPGASVKVSCKASGYTFTDYLMLWVRQAHGQSLEWMGNINPYYGRTYYALKFQGRVTMTVDRSTSTVYMELSSLRSEDTAVYYCARDGYSLRNAMDYWGQGTLVTVSS VL: DIVMTQSPDSLAVSLGERATINCKSSQSLFNSGNQKNYLAWYQQKPGQPPKLLIYGASTRESGVPDRFSGSGSGTDFTLTISSLQAEDVAVYYCQNAHSYPYTFGQGTKVEIKR | – |
| – | – | – | – | 0.03 | 0.019 | 0.54 | 16 | 7.42 | humanized antibody hz40F6-1.2 (antibody, human IgG1, kappa, V domains shown) VH: QVQLVESGGGVVQPGRSLRLSCAASGFTLTSYGVYWVRQAPGKGLEWVAVVWAGGNTNYNSALMSRFTISKDNSKSTLYLQMNSLRAEDTAVYYCARDRGRLLAMDYWGQGTLVTVSS VL: DIVMTQSPDSLAVSLGERATINCKSSQSLLNSGNQKNYLAWYQQKPGQPPKLLIYGASTRESGVPDRFTGSGSGTDFTLTISSLQAEDVAVYYCQNDHFFPFTFGQGTKVEIKR | – |
| – | – | – | – | 0.013 | 0.045 | 1.47 | 20 | 8.24 | humanized antibody hz40F6-1.1 (antibody, human IgG1, kappa, V domains shown) VH: QVQLVESGGGVVQPGRSLRLSCAASGFTLTSYGVYWVRQAPGKGLEWVAVVWAGGNTNYADSVKGRFTISKDNSKSTLYLQMNSLRAEDTAVYYCARDRGRLLAMDYWGQGTLVTVSS VL: DIVMTQSPDSLAVSLGERATINCKSSQSLLNSGNQKNYLAWYQQKPGQPPKLLIYGASTRESGVPDRFTGSGSGTDFTLTISSLQAEDVAVYYCQNDHFFPFTFGQGTKVEIKR | – |
| – | – | – | – | 0.014 | 0.028 | 0.9 | 16.2 | 6.13 | humanized antibody hz40F6-2.3 (antibody, human IgG1, kappa, V domains shown) VH: QVQLVESGGGVVQPGRSLRLSCAASGFTLTSYGVYWVRQAPGKGLEWVAVVWAGGNTNYADALKGRFTISKDNSKSTLYLQMNSLRAEDTAVYYCARDRGRLLAMDYWGQGTLVTVSS VL: DIVMTQSPDSLAVSLGERATINCKSSQSLLNSGNQKNYLAWYQQKPGQPPKLLIYGASTRESGVPDRFSGSGSGTDFTLTISSLQAEDVAVYYCQNDYFFPFTFGQGTKVEIKR | – |
| – | – | – | – | 0.01 | 0.019 | 0.53 | 14.9 | 7.54 | humanized antibody hz40F6-2.2 (antibody, human IgG1, kappa, V domains shown) VH: QVQLVESGGGVVQPGRSLRLSCAASGFTLTSYGVYWVRQAPGKGLEWVAVVWAGGNTNYNSALMSRFTISKDNSKSTLYLQMNSLRAEDTAVYYCARDRGRLLAMDYWGQGTLVTVSS VL: DIVMTQSPDSLAVSLGERATINCKSSQSLLNSGNQKNYLAWYQQKPGQPPKLLIYGASTRESGVPDRFSGSGSGTDFTLTISSLQAEDVAVYYCQNDYFFPFTFGQGTKVEIKR | – |
| 0.184 | 0.019 | 12.1 | 7.25 | – | – | – | – | – | humanized antibody hz28G3-2.1 (antibody, human IgG1, kappa, V domains shown) VH: QVQLVQSGAEVKKPGASVKVSCKTSGYSFTDYLMLWVRQAPGQGLEWMGNINPYYGRTTYALKFKGRVTMTVDRSTSTVYMELSSLRSEDTAVYYCARDGYSLRNAMDYWGQGTLVTVSS VL: DIVMTQSPYSLAVSLGERATINCKSSQSLFNSGNQKNYLAWYQQKPGQPPKLLIYGASTRESGVPDRFTGSGSGTDFTLTISSLQAEDVAVYYCQNAHSYPYTFGQGTKVEIKR | – |
| – | – | – | – | 0.014 | 0.03 | 0.89 | 13.3 | 6.38 | humanized antibody hz40F6-2.4 (antibody, human IgG1, kappa, V domains shown) VH: QVQLVESGGGVVQPGRSLRLSCTVSGFTLTSYGVYWVRQAPGKGLEWVAVVWAGGNTNYNSALKGRFTISKDNSKSTLYLQMNSLRAEDTAVYYCARDRGRLLAMDYWGQGTLVTVSS VL: DIVMTQSPDSLAVSLGERATINCKSSQSLLNSGNQKNYLAWYQQKPGQPPKLLIYGASTRESGVPDRFSGSGSGTDFTLTISSLQAEDVAVYYCQNDYFFPFTFGQGTKVEIKR | – |
| 0.209 | 0.019 | 11.9 | 6.54 | – | – | – | – | – | humanized antibody hz28G3-2.3 (antibody, human IgG1, kappa, V domains shown) VH: QVQLVQSGAEVKKPGASVKVSCKTSGYSFTDYLMLWVRQAHGQSLEWMGNINPYYGRTTYALKFKGRVTMTVDRSTSTVYMELSSLRSEDTAVYYCARDGYSLRNAMDYWGQGTLVTVSS VL: DIVMTQSPYSLAVSLGERATINCKSSQSLFNSGNQKNYLAWYQQKPGQPPKLLIYGASTRESGVPDRFTGSGSGTDFTLTISSLQAEDVAVYYCQNAHSYPYTFGQGTKVEIKR | – |
| – | – | – | – | 0.024 | 0.017 | 0.55 | 10.6 | 6.44 | humanized antibody hz40F6-1.4 (antibody, human IgG1, kappa, V domains shown) VH: QVQLVESGGGVVQPGRSLRLSCTVSGFTLTSYGVYWVRQAPGKGLEWVAVVWAGGNTNYNSALKGRFTISKDNSKSTLYLQMNSLRAEDTAVYYCARDRGRLLAMDYWGQGTLVTVSS VL: DIVMTQSPDSLAVSLGERATINCKSSQSLLNSGNQKNYLAWYQQKPGQPPKLLIYGASTRESGVPDRFTGSGSGTDFTLTISSLQAEDVAVYYCQNDHFFPFTFGQGTKVEIKR | ADCC EC50, PBMC effector cells, KATOIII target cells (human CLDN18.2 [8]): 0.1 nM; ADCC EC50, PBMC effector cells, NIH-3T3-CLDN18.2 target cells (human CLDN18.2 [8]): 0.31 nM; ADCC EC50, PBMC effector cells, NUGC-4 target cells (human CLDN18.2 [8]): 0.12 nM; ADCC Maximum killing (%), PBMC effector cells, KATOIII target cells (human CLDN18.2 [8]): 13.3%; ADCC Maximum killing (%), PBMC effector cells, NIH-3T3-CLDN18.2 target cells (human CLDN18.2 [8]): 24.6%; ADCC Maximum killing (%), PBMC effector cells, NUGC-4 target cells (human CLDN18.2 [8]): 2.83% |
| 0.275 | 0.017 | 14.2 | 5.62 | – | – | – | – | – | humanized antibody hz28G3-2.4 (antibody, human IgG1, kappa, V domains shown) VH: QVQLVQSGAEVKKPGASVKVSCKASGYTFTDYLMLWVRQAHGQSLEWMGNINPYYGRTYYALKFQGRVTMTVDRSTSTVYMELSSLRSEDTAVYYCARDGYSLRNAMDYWGQGTLVTVSS VL: DIVMTQSPYSLAVSLGERATINCKSSQSLFNSGNQKNYLAWYQQKPGQPPKLLIYGASTRESGVPDRFTGSGSGTDFTLTISSLQAEDVAVYYCQNAHSYPYTFGQGTKVEIKR | – |

Reference: US20240409629A1 (CHIA TAI TIANQING PHARMACEUTICAL GROUP, published 2024)
